# Reference: the supplement of paper PMC9942255
# Values joined by “and” are separate entries in the source; they are usually repeats but may differ in a detail not shown here. Identical values can stand only once.
# Test system: Bacillus subtilis DB104 (SP-AmyQ fusion secretion)
# Assay: AmyQ secretion efficiency, weighted average sort bin (1 = best secretion, 10 = worst) (bin number (weighted average, 1-10)); higher = lower secretion efficiency
# How it was run: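 A B. subtilis DB104 library carrying amyE-integrated fusions of designed signal peptides to mature AmyQ was encapsulated at about 0.3 cells per ~65 nL alginate bead with fluorescein-starch and grown about 13 h at room temperature. Following nile red staining, occupied beads were flow-sorted as large particles into 10 equally populated bins by green/red fluorescence ratio, and the bin amplicons were Illumina-sequenced. The secretion score is the read-frequency-weighted average bin number normalised to beads per bin, leaving out low-abundance sequences.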
row,Sequence,AmyQ secretion efficiency
1,MKRLLVSLRVWMVFLMNWVTPDRKTYAAAVY,6.89
2,MKSKWMSGLLLVAVGFSFTSVMVHAGET,7.31
3,MAAQTDYKKQVVGILLSLAFVLFVFSRSERHE,4.39
4,MKKIWIGMLAAAVLLLSVFAMVPKVSLADAA,4.61
5,MRKKLKWLSFLLGFIILLFLFKYQFSSNDS,5.44
6,MRKNRILALFVLSLGLLSFMVTPVSAASK,2.04 and 2.05 and 2.92
7,MRSYIKVLTMCFLGLILFVPTALAANR,2.08
8,MKKKKAAAVLLSLGLVFGFSYGAGHVAEAKTK,1.65
9,MYSKGLLAGALTATVLFGTCAVDVPGIISPKTAEAASQ,2.38
10,MKRIRIPMKLALGAALTIAPLSFASAEEN,4.57
11,MKKIWIGMLAAAVLLLMVPKVSPAVPSGFSLADAA,6.35
12,MKKWMITIAMLILAGIALFVFISPLKRHKT,7.32
13,MMKKGLLAGALTATVLFGTCAVDVPGIISPKTAEAASR,2.71
14,MKKIVSILFMFGLVMRRKRKKPSTVFAADK,7.34
15,MFNRLFRYCTLAALIMAFTLPNSVYAQKP,1.93
16,MKKIMSAFVGMVLLTIFCVSTLTFSPQASAAYD,4.76
17,MKRFILVLSFLSIIVAYPIQTNASPE,2.06
18,MAIIIAIIAAVIVIAALITFNVANASPG,5.63
19,MKSKWMSGLLLVAVGFSFRKKKKKVHAGET,7.2
20,MRSYIKVLTMCFLGLILFVPTGVFGSSPPFAAALADNS,3.3
21,MKKRKKKFFGPIILAFILFAGAIAIPS,6.45
22,MRSYIKVLTMCFLGLILFVKRRKRRALADNS,7.48

row,Sequence,AmyQ secretion efficiency
1,MKLSVKIAGVLTVAAAAMTAKMYPTAKGN,5.7
2,MKSKWMSGLLLVAVGFSFTQVMNHAGET,5.68
3,MRKKCSTCQWRLVLLLSCLSGKSAYAATS,5.76
4,MKLSVKIAGVLTVAAAAMTAKMYATMKGN,6.84
5,MFNRLFRVCRRAALIMAFTLPNSVYAQKP,4.23
6,MAAQTDYKKQVVGILLSLAFVLFVFSCSERHE,4.02
7,MKKELRRKKKRCLSLSPLVSTNEVFAATT,6.21
8,MRKKRVITCVMAASLTLGSLLPAGYCTAKED,3.9
9,MKRIRIPMTLALGAALTIAPLSFISAEEN,3.01
10,MKSKGSIMACLILFLFMIFTFINTETISAFSN,5.32
11,MKNMSCKLVVSVTLFFSFLTIGPLAHCQNS,1.91
12,MKKAAAVLLSLGLVFGFSYGAGHVQEAKTK,7.17
13,MKKQIITATTAVVLGSTLFAAASSTGAASAQSI,3.24
14,MKKIMSAFVGMVLLTIFCRRRQASAAYD,7.16
15,MKRTWNVCLIALLMVLLVAIFVTSPFHAEAKKP,2.11
16,MKQRKRVSALTPSTTLAITAKAKEL,7.26
17,MLCVMMLLFSAIASFPVSKQAKDQ,7.19
18,MFLFQVSHAIIISVMLSFVIAVFHTIHASELTP,6.77
19,MKLRKVRRRKKRSLGLLVSASPAFATSP,8.72
20,MKKKRLLLATSALTFSLSLVLPLDGHAKAQEV,2.9
21,MKKWIYVVLVLSIAGIGGFSVHMASS,5.57
22,MKKWMAGLFLAAAVLLCLMIQGASS,3.95

row,Sequence,AmyQ secretion efficiency
1,MKVPKTMLLSTAAGLLLSLTATSVSCHYV,5.45
2,MKKRFFGPIILAFILFRRRAIAIPS,7.49
3,MKRLLSTLLIGIMLLTFAPSAFGKQD,1.17
4,MRKKRVITCVMAASLTLGSLLPAGYASTKED,2.82
5,MRKRKKLSVAVAASFMSLSISLPGVQAAEG,1.73
6,MGMKKKLSLGVASAALGLALVGGGTWGAFN,7.37
7,MRFTKKKTFLSVLGLAAVFPLTAQAEKA,3.64
8,MGMKKKLSLGVASAALGLALVGGGTWNAFN,6.68
9,MKKSQYTTLFIVFICFFVLFSVHPIAAAAADS,2.98
10,MKRKRLLSSLAISALSLGLLVSAPTASFAAES,2.64 and 3.51
11,MKLWMRKTLRRLFTIVTFGLVSPPAALMADKP,7.18
12,MKKGIIRFLLVSFVLFFALSTGITGKQAAPA,5.05
13,MRKKLKWLSFLLGFIILLFLFKKKFSNNDS,7.77
14,MKKMLGKSGKQTTTGVFFAVVVKDVFAAGL,6.37
15,MKVKRRKRKLLLFAFEPSASGKKL,6.97
16,MLKRTSFVSSLFISSAVLLSILLPSGQGHAQSA,1.31
17,MKKQIITATTAVVLGSTLFAGADSAQSI,3.56
18,MKRFSTAYLLLGILCSAAVFLIGAPSRALCAEV,3.3
19,MKKTSGTKYKCQSLILSVLAAPPSGAKAESV,7.18
20,MKSKGSIMACLILFSFTITTFINTETISAFSR,3.97
